Results reported in PMC7749629.

Target: T1, h-PUS10 (recombinant PUS10 from total HEK293T extract) (human, UniProt Q3MIT2 1-529)
T1 sequence: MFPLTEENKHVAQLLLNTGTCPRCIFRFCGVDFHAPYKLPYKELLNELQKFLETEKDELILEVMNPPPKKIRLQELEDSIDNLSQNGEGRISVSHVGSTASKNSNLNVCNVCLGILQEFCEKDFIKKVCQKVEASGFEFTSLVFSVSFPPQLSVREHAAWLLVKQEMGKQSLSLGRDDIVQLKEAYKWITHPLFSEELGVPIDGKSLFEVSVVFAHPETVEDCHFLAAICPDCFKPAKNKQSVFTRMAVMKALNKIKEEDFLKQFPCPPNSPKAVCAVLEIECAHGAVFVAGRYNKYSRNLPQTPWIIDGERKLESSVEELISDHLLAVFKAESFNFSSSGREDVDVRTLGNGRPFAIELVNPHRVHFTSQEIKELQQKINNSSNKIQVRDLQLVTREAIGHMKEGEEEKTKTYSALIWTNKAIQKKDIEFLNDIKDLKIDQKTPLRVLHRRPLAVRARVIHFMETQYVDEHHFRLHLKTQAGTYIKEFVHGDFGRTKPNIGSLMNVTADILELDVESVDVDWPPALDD
Assay: EMSA

B1: mutated tRNAAU-Ala (U59A, G60A; GAAA at 57-60) (structured_RNA)
RNA: GGGGAAUUAGCUCAAAUGGUAGAGCGCUCGCUUAGCAUGCGAGAGGUAGCGGGAUCGAAACCCGCAUUCUCCA
modifications: unmodified transcript
**Q.** Does B1 bind?
**A.** binds
